According to US20050250690A1:

Biological target: OB-R (leptin receptor) expressed by rabbit endometrial cells (rEEC and rESC) (rabbit)
Test: competition with 125I-human leptin for OB-R in rabbit endometrial cell lysates (rEEC and rESC), PEG precipitation

B1: LPA-2 (leptin peptide antagonist 2; residues 70-95 of helix III of the human leptin molecule) (peptide)
peptide: SRNVIQISNDLENLRDLLHVLAFSKS
Ki: 0.06 nM
